These are literature values, as cited in publication PMC12520553.

What is called Kd is the constant that tells how readily two partners part at equilibrium.

Data set [1] addresses RAGE (Homo sapiens) (UniProt Q15109).
In another data set the target is sRAGE ECD (Homo sapiens) (UniProt Q15109). Description: MST.
The target of data set [2] is S100B (Homo sapiens) (UniProt P04271). Description: SPR. In general terms: Surface plasmon resonance follows binding to a sensor surface in real time, without labels.
S100B (Homo sapiens), sequence (P04271 2-92): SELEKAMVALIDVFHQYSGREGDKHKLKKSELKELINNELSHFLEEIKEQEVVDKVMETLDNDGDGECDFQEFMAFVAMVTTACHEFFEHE
Data set [3] deals with fructose-BSA (Bos taurus) (UniProt P02769). Description: SPR.
fructose-BSA (Bos taurus), sequence (P02769 25-607): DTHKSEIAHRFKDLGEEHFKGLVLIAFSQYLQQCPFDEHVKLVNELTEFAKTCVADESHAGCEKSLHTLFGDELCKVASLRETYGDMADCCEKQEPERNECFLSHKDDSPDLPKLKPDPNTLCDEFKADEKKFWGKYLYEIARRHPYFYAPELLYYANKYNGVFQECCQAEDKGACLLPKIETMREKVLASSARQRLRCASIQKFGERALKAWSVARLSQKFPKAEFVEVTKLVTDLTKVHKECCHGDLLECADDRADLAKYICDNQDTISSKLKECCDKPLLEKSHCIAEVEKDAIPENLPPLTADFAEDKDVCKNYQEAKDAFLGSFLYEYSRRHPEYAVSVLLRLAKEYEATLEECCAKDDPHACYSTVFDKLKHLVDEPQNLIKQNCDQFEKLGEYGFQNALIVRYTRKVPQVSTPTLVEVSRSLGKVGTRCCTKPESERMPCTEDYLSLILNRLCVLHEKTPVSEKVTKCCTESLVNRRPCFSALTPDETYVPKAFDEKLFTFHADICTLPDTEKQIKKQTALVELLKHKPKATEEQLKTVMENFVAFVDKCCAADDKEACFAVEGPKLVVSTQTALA
A further data set has as its target glucose-BSA (Bos taurus) (UniProt P02769). Description: SPR.
For another data set, the target named is S100A9 (Homo sapiens) (UniProt P06702). Description: SPR.
S100A9 (Homo sapiens), sequence (P06702 whole entry): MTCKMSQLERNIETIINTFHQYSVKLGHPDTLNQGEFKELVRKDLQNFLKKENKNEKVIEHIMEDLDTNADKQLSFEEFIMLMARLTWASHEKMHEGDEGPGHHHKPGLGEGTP
The next data set concerns the target S100A8 (Homo sapiens) (UniProt P05109). Description: SPR.
For data set [4], the target named is Aβ1-40 Aβ1-40 (Homo sapiens) (UniProt P05067).
Data set [5] addresses Aβ42 Aβ42 (Homo sapiens) (UniProt P05067).
In data set [6] the target is Aβ40 Aβ40 (Homo sapiens) (UniProt P05067).
In the next data set the target is S100A13 (Homo sapiens) (UniProt Q99584). Description: ITC.
S100A13 (Homo sapiens), sequence (Q99584 whole entry): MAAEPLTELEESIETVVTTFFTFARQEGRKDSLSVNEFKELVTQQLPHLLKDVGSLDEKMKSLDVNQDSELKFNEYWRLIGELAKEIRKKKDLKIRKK
A further data set has as its target C1q (Homo sapiens) (UniProt P02745). Description: SPR.
The target of the next data set is HMGB1 (Homo sapiens) (UniProt P09429). Description: SPR.
HMGB1 (Homo sapiens), sequence (P09429 whole entry): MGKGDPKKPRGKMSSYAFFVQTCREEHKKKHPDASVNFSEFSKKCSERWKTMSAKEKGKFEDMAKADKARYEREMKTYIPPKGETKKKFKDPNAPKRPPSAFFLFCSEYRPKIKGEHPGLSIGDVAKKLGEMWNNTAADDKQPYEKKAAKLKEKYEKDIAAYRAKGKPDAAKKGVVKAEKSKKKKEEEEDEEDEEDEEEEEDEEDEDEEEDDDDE
A further data set has as its target Aβ Aβ (Homo sapiens) (UniProt P05067).
Another data set deals with S100P (Homo sapiens) (UniProt P25815). Description: ITC. In general terms: ITC needs no label: the signal is the heat of the interaction.
S100P (Homo sapiens), sequence (P25815 whole entry): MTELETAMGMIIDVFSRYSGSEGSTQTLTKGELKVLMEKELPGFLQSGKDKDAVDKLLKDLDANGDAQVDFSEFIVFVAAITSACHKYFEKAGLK
Another data set deals with S100A6m (Homo sapiens) (UniProt P06703). Description: ITC.
In a further data set the target is S100A11 (Homo sapiens) (UniProt P31949). Description: NMR.
S100A11 (Homo sapiens), sequence (P31949 2-105): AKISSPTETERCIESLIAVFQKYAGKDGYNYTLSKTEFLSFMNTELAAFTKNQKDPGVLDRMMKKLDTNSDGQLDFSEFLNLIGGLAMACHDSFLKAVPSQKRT
Data set [7] addresses Aβ40 Aβ40 (Homo sapiens) (UniProt P05067). Description: given as Ka.
For data set [8] the target is unchanged. This is another data set of the same source.
The next data set concerns the target S100A5 (Homo sapiens) (UniProt P33763).
Data set [9] has as its target Aβ42 Aβ42 (Homo sapiens) (UniProt P05067). Description: MST.
Data set [10] has as its target S100B (Homo sapiens) (UniProt P04271). Description: ITC.
In data set [11] the target is RAGE V domain (Homo sapiens) (UniProt Q15109).
In data set [12] the target is RAGE (Homo sapiens) (UniProt Q15109). Description: SPR.
The target of data set [13] is RAGE 23-132 (Homo sapiens) (UniProt Q15109).
Data set [14] addresses S100B (dimer) (Homo sapiens) (UniProt P04271). Description: SPR.
For data set [15], the target named is Aβ17-42 Aβ17-42 (Homo sapiens) (UniProt P05067). Description: MST.
The target of data set [16] is pS8-Aβ42 Aβ42 (Homo sapiens) (UniProt P05067). Description: MST.
The target of data set [17] is iso-Aβ42 Aβ42 (Homo sapiens) (UniProt P05067). Description: MST.

Like-named read-outs stand apart in the source and are kept apart here.

S100A9, sequence (P06702 whole entry): as the sequence (P06702 whole entry) above
S100A5, sequence (P33763 whole entry): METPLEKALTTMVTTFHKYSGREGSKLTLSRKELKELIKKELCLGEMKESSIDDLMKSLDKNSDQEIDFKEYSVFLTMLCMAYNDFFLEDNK
S100A5 (Homo sapiens), sequence (P33763 whole entry): as above
C1q (Homo sapiens), sequence (P02745 23-245, chain 1 of 3): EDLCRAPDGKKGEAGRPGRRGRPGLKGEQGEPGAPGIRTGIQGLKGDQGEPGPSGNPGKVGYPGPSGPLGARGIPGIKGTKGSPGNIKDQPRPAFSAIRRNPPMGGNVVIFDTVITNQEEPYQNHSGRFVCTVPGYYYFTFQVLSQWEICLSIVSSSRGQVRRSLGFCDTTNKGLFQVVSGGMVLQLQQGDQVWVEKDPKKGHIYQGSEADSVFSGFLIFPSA
C1q (Homo sapiens), sequence (P02746 28-253, chain 2 of 3, further chain): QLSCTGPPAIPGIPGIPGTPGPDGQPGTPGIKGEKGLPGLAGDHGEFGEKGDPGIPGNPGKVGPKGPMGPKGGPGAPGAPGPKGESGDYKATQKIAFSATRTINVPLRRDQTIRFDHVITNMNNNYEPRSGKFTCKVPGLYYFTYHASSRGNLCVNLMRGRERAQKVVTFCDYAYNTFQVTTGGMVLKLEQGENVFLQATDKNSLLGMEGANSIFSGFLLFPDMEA
C1q (Homo sapiens), sequence (P02747 29-245, chain 3 of 3, further chain): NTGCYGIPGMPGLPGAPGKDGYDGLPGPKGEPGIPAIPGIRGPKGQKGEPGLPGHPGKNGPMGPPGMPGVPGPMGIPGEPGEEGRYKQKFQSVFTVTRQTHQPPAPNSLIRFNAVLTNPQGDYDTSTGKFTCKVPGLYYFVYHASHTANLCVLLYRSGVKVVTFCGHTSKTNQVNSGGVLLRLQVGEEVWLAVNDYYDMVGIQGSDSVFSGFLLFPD
S100A8 (Homo sapiens), sequence (P05109 whole entry): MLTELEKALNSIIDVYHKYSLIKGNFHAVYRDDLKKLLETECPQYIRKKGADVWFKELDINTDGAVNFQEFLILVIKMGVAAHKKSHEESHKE
S100A8, sequence (P05109 whole entry): as above
S100B (dimer) (Homo sapiens), sequence (P04271 2-92): as the sequence (P04271 2-92) above
S100B, sequence (P04271 2-92): as above
fructose-BSA (AGE), sequence (P02769 25-607): as the sequence (P02769 25-607) above
glucose-BSA (AGE), sequence (P02769 25-607): as above
glucose-BSA (Bos taurus), sequence (P02769 25-607): as above

On to “Amyloid-beta 1-40 Abeta 1-40 (from UniProt P05067)”, for which, in the data set with RAGE (Homo sapiens) [1], the Kd was 57 nM.

For “Amyloid-beta 17-42 Abeta 17-42 (from UniProt P05067)”, the Kd in the data set with sRAGE ECD (Homo sapiens) was 10000 nM.

For RAGE 23-132 (from UniProt Q15109), the Kd in the data set with S100B (Homo sapiens) [2] is 500 nM.

Consider RAGE (from UniProt Q15109), for which the Kd in data set [3] is 19500 nM; in the data set with glucose-BSA (Bos taurus) it was 13900 nM; with S100A9 (Homo sapiens) it was 3.21 nM; in the data set with S100A8 (Homo sapiens), 70 nM; in data set [4] it was 57 nM; with Aβ42 Aβ42 (Homo sapiens) [5], 92 nM. The dissociation constant (Kd) with Aβ40 Aβ40 (Homo sapiens) [6] is 75 nM.

RAGE C2 (from UniProt Q15109): the Kd in the data set with S100A13 (Homo sapiens) is 1300 nM.

Consider RAGE V domain (from UniProt Q15109), for which the Kd is 5600 nM in the data set with C1q (Homo sapiens); 97.7 nM in the data set with HMGB1 (Homo sapiens); 52.2 nM with Aβ Aβ (Homo sapiens); 6200 nM with S100P (Homo sapiens); 3000 nM in the data set with S100A6m (Homo sapiens); 2650 nM with S100A11 (Homo sapiens). Further, the Kd with Aβ40 Aβ40 (Homo sapiens) [7] is 625 nM; with Aβ40 Aβ40 (Homo sapiens) [8], 600 nM; with S100A5 (Homo sapiens) it was 5900 nM; with Aβ42 Aβ42 (Homo sapiens) [9], 1000 nM.

Take RAGE VC1 (from UniProt Q15109): the Kd with S100B (Homo sapiens) [10] is 3190 nM.

For S100A5 (from UniProt P33763), the Kd in [11] was 5900 nM.

On to S100A8 (from UniProt P05109), for which the dissociation constant (Kd) with RAGE (Homo sapiens) [12] is 70 nM.

As to S100A9 (from UniProt P06702), the Kd in the data set with RAGE (Homo sapiens) [12] is 3.21 nM.

S100B (from UniProt P04271): the Kd in data set [13] is 500 nM.

As for “fructose-BSA (AGE) (from UniProt P02769)”, the Kd with RAGE (Homo sapiens) [12] was 19500 nM.

With glucose-BSA (AGE) (from UniProt P02769), in the data set with RAGE (Homo sapiens) [12], the Kd is 13900 nM.

Consider sRAGE ECD (from UniProt Q15109), for which the Kd in [14] was 8300 nM; in data set [15], 10000 nM; in [16], 7000 nM; in data set [17], 23000 nM.
